Measured values reported in patent US20200339702A1 (ULTRAHUMAN THIRTEEN, published 2020).

T1: rhesus monkey ERBB3 human Fc tagged recombinant protein (rhesus monkey (Macaca mulatta), UniProt P21860 20-643 (human entry), limits assumed)
T1 construct: also called rhesus ERBB3-Fc; rhERBB3
T1 chain: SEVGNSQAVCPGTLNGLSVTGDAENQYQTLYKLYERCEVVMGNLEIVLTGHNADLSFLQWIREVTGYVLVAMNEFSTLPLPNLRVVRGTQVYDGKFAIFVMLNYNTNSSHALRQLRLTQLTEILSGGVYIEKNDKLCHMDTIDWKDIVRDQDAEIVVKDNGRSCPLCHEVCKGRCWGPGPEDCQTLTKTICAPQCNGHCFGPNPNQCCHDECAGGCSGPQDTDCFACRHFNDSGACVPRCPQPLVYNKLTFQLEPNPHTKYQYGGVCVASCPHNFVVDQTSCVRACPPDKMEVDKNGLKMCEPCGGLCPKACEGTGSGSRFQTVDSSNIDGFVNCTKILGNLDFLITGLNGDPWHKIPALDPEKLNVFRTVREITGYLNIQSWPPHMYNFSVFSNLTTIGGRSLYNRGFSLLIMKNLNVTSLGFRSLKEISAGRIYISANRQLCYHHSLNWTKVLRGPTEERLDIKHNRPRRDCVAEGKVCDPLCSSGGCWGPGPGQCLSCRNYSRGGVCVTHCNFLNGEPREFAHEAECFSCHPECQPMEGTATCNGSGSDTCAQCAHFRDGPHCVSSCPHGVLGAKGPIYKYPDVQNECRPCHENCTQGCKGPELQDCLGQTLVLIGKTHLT

T2: rhesus ERBB3 on transiently transfected HEK-293 cells (rhesus monkey (Macaca mulatta), UniProt P21860 20-1342 (human entry))
T2 construct: also called rhesus ERBB3+ HEK-293 cells
T2 chain: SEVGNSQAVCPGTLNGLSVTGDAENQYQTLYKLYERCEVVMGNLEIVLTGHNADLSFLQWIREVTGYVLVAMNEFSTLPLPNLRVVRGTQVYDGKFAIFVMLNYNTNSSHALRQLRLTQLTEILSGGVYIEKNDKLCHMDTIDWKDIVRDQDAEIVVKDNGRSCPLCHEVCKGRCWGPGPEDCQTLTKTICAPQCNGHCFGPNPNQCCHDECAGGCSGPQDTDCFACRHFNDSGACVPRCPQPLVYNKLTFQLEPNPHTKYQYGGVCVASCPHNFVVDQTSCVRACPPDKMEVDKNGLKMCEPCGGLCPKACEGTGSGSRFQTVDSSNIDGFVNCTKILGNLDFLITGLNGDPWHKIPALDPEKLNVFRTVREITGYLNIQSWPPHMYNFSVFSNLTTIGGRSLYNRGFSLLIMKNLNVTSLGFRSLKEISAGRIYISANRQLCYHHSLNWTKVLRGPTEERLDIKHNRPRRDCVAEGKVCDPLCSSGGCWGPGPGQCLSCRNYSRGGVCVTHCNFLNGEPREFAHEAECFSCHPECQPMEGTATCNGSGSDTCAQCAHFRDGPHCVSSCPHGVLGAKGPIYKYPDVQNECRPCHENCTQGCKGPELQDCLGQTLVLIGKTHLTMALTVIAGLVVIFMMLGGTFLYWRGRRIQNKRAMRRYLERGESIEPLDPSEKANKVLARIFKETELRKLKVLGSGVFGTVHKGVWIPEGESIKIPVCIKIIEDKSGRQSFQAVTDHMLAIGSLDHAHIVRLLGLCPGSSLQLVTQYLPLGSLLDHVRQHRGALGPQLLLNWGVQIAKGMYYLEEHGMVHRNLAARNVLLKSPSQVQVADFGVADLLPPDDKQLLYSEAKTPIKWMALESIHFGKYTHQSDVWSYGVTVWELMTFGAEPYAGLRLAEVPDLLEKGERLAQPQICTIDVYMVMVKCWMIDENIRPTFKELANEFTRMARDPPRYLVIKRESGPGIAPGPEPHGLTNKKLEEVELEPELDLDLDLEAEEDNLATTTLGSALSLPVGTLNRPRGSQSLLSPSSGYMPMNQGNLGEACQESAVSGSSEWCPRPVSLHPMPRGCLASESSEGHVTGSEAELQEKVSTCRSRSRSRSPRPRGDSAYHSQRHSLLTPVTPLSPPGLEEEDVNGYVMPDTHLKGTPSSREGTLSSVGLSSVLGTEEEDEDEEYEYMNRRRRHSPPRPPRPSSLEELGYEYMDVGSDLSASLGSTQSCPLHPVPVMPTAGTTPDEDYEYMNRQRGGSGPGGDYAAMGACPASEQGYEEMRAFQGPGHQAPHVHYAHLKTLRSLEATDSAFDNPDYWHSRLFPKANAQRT

T3: rhesus monkey ERBB3 His tag, monomeric (rhesus monkey (Macaca mulatta), UniProt P21860 20-643 (human entry), limits assumed)
T3 chain: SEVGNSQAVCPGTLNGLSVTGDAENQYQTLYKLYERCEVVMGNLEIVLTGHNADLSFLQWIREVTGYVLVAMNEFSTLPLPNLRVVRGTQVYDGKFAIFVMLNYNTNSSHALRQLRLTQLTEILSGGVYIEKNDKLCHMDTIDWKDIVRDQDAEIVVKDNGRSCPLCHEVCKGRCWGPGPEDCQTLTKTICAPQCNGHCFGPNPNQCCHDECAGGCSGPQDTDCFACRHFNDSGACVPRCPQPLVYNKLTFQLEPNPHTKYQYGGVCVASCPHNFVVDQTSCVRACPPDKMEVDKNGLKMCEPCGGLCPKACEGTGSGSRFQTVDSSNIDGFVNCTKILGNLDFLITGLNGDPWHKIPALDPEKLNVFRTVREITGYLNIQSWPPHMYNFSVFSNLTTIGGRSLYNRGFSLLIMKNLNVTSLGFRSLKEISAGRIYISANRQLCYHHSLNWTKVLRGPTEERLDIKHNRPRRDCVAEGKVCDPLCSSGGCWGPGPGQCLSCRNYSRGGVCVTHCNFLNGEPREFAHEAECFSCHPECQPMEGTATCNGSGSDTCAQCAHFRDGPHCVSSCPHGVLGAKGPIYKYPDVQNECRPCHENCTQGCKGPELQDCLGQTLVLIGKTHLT


Key:
[1] = biological target: T4, human ERBB3 on transiently transfected HEK-293 cells (human, UniProt P21860 20-1342); assay: flow cytometry, human ERBB3-transfected HEK-293 cells, IgG1 titrated
T4 construct: also called human ERBB3+ HEK-293 cells
Protocol: (§1) Purified IgGs were tested in FACs for binding to human and rhesus monkey ERBB3 expressed on transiently transfected HEK-293 cells and HEK-293 wild-type cells. The IgG samples were titrated in three-fold serial dilutions starting at 500 nM to 0.008 nM. Binding of IgGs was detected with a mouse anti-human IgG conjugated to FITC. Results were analyzed by examining the Mean Fluorescence Intensity (MFI) of 10000 cells per sample in the BL-1 channel detector of a flow cytometer (Attune™ NxT Acoustic Focusing Cytometer, Invitrogen/ThermoFisher Scientific).

[2] = biological target: T1, rhesus monkey ERBB3 human Fc tagged …; assay: direct binding ELISA on coated rhesus ERBB3-Fc, IgG1 titrated
Protocol: (§2) Binding and cross-reactivity of the lead panel to the recombinant proteins was initially assessed by binding ELISA. The human ERBB3 human Fc tagged recombinant protein and the rhesus monkey ERBB3 human Fc tagged recombinant protein were coated to the surface of MaxiSorp™ flat-bottom 96 well plate at 1 μg/ml. The purified IgG samples were titrated in two fold serial dilutions starting from 500 nM to 0.008 nM and allowed to bind to the coated antigens. The Fabs were detected using mouse anti-c-myc antibody followed by donkey anti-mouse IgG conjugated to horseradish peroxidase. The IgGs were detected using the mouse anti-human IgG conjugated to horseradish peroxidase. Binding signals were visualized with 3,3′,5,5′-Tetramethylbenzidine Substrate Solution (TMB) and the absorbance measured at 450 nm.

[3] = biological target: T5, human ERBB3 His tagged, monomeric (human, UniProt P21860 20-643, biotinylated in the Alphascreen assays (sites not given)); assay: Alphascreen competition in solution, competitor h24C05 IgG1, biotinylated human ERBB3-His
T5 construct: Used unbiotinylated as Biacore analyte and biotinylated in Alphascreen; treated as one molecule; also called human ERBB3-His (Acrobiosystems); biotinylated monomeric human ERBB3

human insulin = biological target: T6, human insulin (human, UniProt P01308 25-54; P01308 90-110, limits assumed); assay: development risk ELISA on insulin
T6 construct: Off-target protein in the development risk (polyreactivity) ELISA

[4] = biological target: T2, rhesus ERBB3 on transiently transfected …; assay: flow cytometry, rhesus ERBB3-transfected HEK-293 cells, IgG1 titrated
Protocol: as §1

[5] = biological target: T7, human ERBB3 human Fc tagged recombinant protein (human, UniProt P21860 20-643); assay: direct binding ELISA on coated human ERBB3-Fc, IgG1 titrated
T7 construct: also called human ERBB3-Fc; huERBB3
Protocol: as §2

[6] = biological target: T3, rhesus monkey ERBB3 His tag, monomeric; assay: SPR (Biacore), captured IgG, monomeric ERBB3-His analyte
Protocol: (§3) Affinity (KD) of purified IgGs was determined via SPR with antigen in-solution on a Biacore® 3000 (GE). A mouse anti-human antibody (CH1 specific) was immobilized on a CM5 Sensor Chip to a level of 2000 RU in acetate buffer at pH 4.5 using amine coupling following the Wizard instructions for two channels. One channel was used for background signal correction. The standard running buffer HBS-EP pH 7.4 was used. Regeneration was performed with a single injection of 10 μl of 10 mM Glycine at pH 1.5 at […]. IgG samples were injected for 2 minutes at 50 nM at 30 μl/min followed by an off-rate of 60 seconds. The monomeric antigen (human ERBB3 His tagged or rhesus monkey ERBB3 His tag) was injected in two fold serial dilutions from 3 nM down to 0.2 nM, for 2 minutes at 30 μl/min followed by an off-rate of 300 seconds. The obtained sensorgrams were analysed using the Biacore® 3000 evaluation (BlAevaluation) software. The KD was calculated by simultaneous fitting of the association and dissociation phases to a 1:1 Langmuir binding model.
(§4) Biacore® analyses of binding affinity were performed for all IgGs to solution-phase, monomeric human and rhesus ERBB3 proteins.

[7] = biological target: T5, human ERBB3 His tagged, monomeric; assay: as above
Protocol: as §3, §4

[8] = biological target: T4, human ERBB3 on transiently transfected …; assay: flow cytometry, human ERBB3-transfected HEK-293
Protocol: as §1
(§5) Antibodies to ERBB3 were analysed for concentration-dependent binding at the cell surface via flow cytometry. HEK-293 cells were transiently transfected with either human or rhesus ERBB3 full-length cDNAs. Anti-ERBB3 IgGs and an isotype control were then all tested in IgG1null format, over a concentration range of 500-0.008 nM for binding to human (FIG. 5A) and rhesus (FIG. 5B) transfected cells.

[9] = biological target: T5, human ERBB3 His tagged, monomeric; assay: Alphascreen competition in solution, competitor h24C05 IgG1null, biotinylated human ERBB3-His
Protocol: The AlphaScreen assay (Perkin Elmer) was performed in a 25 μl final volume in 384-well white microtiter plates (Greiner). The reaction buffer contained 1×PBS pH 7.3 (Oxoid, Cat. nr. BR0014G) and 0.05% (v/v) Tween® 20 (Sigma, Cat. nr. P9416). Purified IgG samples were titrated in three fold serial dilutions starting at 100 nM final concentration and incubated with biotinylated human ERBB3-His (Acrobiosystems) at 1 nM final concentration for 20 minutes at room temperature. The parental IgG and the anti-human IgG1 Acceptor beads at were added and the mix was incubated for 1 hour at room temperature. Followed by addition of the Streptavidin Donor beads and incubation for 30 minutes at room temperature. The emission of light was measured in the EnVision multilabel plate reader (Perkin Elmer) and analysed using the EnVision manager software. Values were reported as Counts Per Second (CPS) and corrected for crosstalk.

[10] = biological target: T2, rhesus ERBB3 on transiently transfected …; assay: flow cytometry, rhesus ERBB3-transfected HEK-293
Protocol: as §1, §5

T6 sequence (P01308 25-54 limits assumed, chain 1 of 2): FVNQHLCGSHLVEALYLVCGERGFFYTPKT
T6 sequence (P01308 90-110 limits assumed, chain 2 of 2): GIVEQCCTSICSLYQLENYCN

Row | binding result [1] | binding result [2] | binding result [3] | binding score (human insulin) | binding result [4] | binding result [5] | Kd [6] [nM] | koff [6] [s⁻¹] | kon [6] [M⁻¹ s⁻¹] | Kd [7] [nM] | koff [7] [s⁻¹] | kon [7] [M⁻¹ s⁻¹] | maximum MFI, fold over isotype control background [8] [fold] | IC50 (read off the curve) [9] [nM] | maximum MFI, fold over isotype control background [10] [fold] | Binder
1 | binds | binds | binds | < 10 | binds | binds | – | – | – | – | – | – | – | – | – | 15G11-DI9 IgG1 (antibody, V domains shown, Human IgG1 format, human Ckappa) VH: QVQLVESGGGLVKPGGSLRLSCAASGFTFSDYSMSWIRQAPGKGLEWVSTISDSGTYTYYPDSVKGRFTISRDNAKNSLYLQMNSLRAEDTAVYYCAREWGDYDGFDFWGQGTLVTVSS VL: DIQMTQSPSSLSASVGDRVTITCRASQEISTYLSWYQQKPGKAPKLLIYAASTLQSGVPSRFSGSGSGTDFTLTISSLQPEDFATYYCLQYDSSPLTFGGGTKVEIK
2 | binds | binds | binds | < 10 | binds | binds | – | – | – | – | – | – | – | – | – | 15G11-DI7 IgG1 (antibody, V domains shown, Human IgG1 format, human Ckappa; also called 15G11-D17) VH: QVQLVESGGGLVKPGGSLRLSCAASGFTFSDYSMSWIRQAPGKGLEWVSTISDSGTYTYYPDSVKGRFTISRDNAKNSLYLQMNSLRAEDTAVYYCAREWGDYDGFDFWGQGTLVTVSS VL: DIQMTQSPSSLSASVGDRVTITCRASQEISSYLSWYQQKPGKAPKLLIYAASSLDTGVPSRFSGSGSGTDFTLTISSLQPEDFATYYCLQYDSSPYTFGGGTKVEIK
3 | – | – | – | – | – | – | 0.18 | 0.00074 | 4.1e+06 | 0.039 | 0.00096 | 2.5e+07 | > 20 | ~5 | > 20 | h24C05 IgG1null (antibody, V domains shown, Human IgG1null (L234A, L235A, G237A) and human Ckappa; also called humanized 24C05) VH: QVQLVESGGGLVKPGGSLRLSCAASGFTFSDYAMSWIRQAPGKGLEWVSTISDGGTYTYYPDNVKGRFTISRDNAKNSLYLQMNSLRAEDTAVYYCAREWGDYDGFDYWGQGTLVTVSS VL: DIQMTQSPSSLSASVGDRVTITCRASQEISGYLSWFQQKPGKAPKSLIYAASTLDSGVPSRFSGSGSGTDFTLTISSLQPEDFATYYCLQYDSYPYTFGGGTKVEIK
